The target in this series is rM1M2 HuR (RRM1-RRM2) (UniProt Q15717 18-186). In words: HTRF; 20 nM protein, 50 nM probe; TM7nox inhibits with IC50 0.7956 uM (small-molecule IC50, not an affinity); REMSA: 30 min incubation, 4% native gel, buffer not given; HTRF: Cisbio protocol; pull-down: lysis in PEB (20 mM Tris-HCl pH 7.5, 100 mM KCl, 5 mM MgCl2, 0.5% NP-40), binding in TENT (20 mM Tris-HCl pH 8.0, 2 mM EDTA, 500 mM NaCl, 1% Triton X-100), 4 C. Particulars: protein: recombinant; tags: His-tag; label: 5'-biotin; single strand. (In general: Time-resolved FRET reads energy transfer from a long-lived donor to a nearby acceptor.)
Sequence of rM1M2 HuR (RRM1-RRM2) (Q15717 18-186): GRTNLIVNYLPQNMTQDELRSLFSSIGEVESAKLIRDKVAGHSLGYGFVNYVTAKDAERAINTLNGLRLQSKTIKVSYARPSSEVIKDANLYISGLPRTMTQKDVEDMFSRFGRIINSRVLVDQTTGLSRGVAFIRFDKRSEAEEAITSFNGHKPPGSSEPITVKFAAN

Turning to AUUAUUUAUUAUUUAUUUAUUAUUUA (ssRNA) [Bi-TNF ARE probe (26 nt)], the binding result is “binds”.
